We go through one substance from PMC4595974.

This assay has as its target Aβ42 fibrils (fibrillar Aβ(M1-42)). As to the kind of experiment: SPR. On the technique in general: SPR reads the build-up and loss of mass on a sensor chip optically.

Broadly, the Kd is the equilibrium constant for the complex coming apart. Low values mean a tighter complex, high ones a looser complex.

With “Brichos domain from proSP-C (lung surfactant C precursor protein) (domain or fragment)”, the Kd came out at 40 nM.
